Common to all, as to experiment: co-IP with anti-FLAG, N-FLAG B3GNT2, mass spectrometry
The target in test [1] is T1, S100A7 (human, UniProt P31151 2-101).
T1 construct: also called NP_002954.2
T1 sequence (looked up): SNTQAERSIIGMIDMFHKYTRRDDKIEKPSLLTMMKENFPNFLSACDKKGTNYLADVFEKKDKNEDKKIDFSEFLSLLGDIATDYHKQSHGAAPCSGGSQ

Test [2] addresses T2, SYNM (human, UniProt O15061 1-1565).
T2 construct: also called NP_663780.2

Test [3] deals with T3, IMMT (human, UniProt Q16891-4 34-757, limits assumed).
T3 construct: also called NP_001093639.1 (+3)
T3 sequence (looked up): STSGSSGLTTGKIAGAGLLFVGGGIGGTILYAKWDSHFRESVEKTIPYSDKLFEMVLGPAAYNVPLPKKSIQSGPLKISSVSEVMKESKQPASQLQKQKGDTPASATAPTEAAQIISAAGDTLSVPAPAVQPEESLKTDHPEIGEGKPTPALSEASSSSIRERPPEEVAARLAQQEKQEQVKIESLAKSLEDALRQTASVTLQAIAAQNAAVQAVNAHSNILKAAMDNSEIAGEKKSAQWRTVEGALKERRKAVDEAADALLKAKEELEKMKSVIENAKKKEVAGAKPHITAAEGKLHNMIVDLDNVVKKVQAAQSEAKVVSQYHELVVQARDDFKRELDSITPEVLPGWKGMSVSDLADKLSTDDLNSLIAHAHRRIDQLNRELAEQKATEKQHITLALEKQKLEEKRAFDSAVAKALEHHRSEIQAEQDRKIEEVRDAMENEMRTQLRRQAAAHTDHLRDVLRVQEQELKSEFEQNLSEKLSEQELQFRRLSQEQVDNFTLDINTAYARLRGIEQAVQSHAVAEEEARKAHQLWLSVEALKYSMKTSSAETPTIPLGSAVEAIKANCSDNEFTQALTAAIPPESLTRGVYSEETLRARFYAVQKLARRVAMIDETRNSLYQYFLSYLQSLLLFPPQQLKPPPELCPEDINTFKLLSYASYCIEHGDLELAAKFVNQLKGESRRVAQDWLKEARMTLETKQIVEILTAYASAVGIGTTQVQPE

Test [4] has as its target T4, NAP1L1 (human, UniProt P55209 2-388).
T4 construct: also called NP_001294853.1 (+1)
T4 sequence (looked up): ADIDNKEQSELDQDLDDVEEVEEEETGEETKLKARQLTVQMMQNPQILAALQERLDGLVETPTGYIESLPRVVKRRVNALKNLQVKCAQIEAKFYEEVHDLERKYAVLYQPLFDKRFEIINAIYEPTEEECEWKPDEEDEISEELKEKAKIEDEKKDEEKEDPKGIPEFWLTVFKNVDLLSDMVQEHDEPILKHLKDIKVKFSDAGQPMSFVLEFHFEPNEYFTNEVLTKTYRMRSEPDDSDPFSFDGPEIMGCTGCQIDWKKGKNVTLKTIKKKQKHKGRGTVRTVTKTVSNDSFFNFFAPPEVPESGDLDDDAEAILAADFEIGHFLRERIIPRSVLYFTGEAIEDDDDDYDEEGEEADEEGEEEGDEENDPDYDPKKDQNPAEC

Test [5] addresses RPL7A (human, UniProt P62424 1-266).

T2 sequence (O15061 whole entry): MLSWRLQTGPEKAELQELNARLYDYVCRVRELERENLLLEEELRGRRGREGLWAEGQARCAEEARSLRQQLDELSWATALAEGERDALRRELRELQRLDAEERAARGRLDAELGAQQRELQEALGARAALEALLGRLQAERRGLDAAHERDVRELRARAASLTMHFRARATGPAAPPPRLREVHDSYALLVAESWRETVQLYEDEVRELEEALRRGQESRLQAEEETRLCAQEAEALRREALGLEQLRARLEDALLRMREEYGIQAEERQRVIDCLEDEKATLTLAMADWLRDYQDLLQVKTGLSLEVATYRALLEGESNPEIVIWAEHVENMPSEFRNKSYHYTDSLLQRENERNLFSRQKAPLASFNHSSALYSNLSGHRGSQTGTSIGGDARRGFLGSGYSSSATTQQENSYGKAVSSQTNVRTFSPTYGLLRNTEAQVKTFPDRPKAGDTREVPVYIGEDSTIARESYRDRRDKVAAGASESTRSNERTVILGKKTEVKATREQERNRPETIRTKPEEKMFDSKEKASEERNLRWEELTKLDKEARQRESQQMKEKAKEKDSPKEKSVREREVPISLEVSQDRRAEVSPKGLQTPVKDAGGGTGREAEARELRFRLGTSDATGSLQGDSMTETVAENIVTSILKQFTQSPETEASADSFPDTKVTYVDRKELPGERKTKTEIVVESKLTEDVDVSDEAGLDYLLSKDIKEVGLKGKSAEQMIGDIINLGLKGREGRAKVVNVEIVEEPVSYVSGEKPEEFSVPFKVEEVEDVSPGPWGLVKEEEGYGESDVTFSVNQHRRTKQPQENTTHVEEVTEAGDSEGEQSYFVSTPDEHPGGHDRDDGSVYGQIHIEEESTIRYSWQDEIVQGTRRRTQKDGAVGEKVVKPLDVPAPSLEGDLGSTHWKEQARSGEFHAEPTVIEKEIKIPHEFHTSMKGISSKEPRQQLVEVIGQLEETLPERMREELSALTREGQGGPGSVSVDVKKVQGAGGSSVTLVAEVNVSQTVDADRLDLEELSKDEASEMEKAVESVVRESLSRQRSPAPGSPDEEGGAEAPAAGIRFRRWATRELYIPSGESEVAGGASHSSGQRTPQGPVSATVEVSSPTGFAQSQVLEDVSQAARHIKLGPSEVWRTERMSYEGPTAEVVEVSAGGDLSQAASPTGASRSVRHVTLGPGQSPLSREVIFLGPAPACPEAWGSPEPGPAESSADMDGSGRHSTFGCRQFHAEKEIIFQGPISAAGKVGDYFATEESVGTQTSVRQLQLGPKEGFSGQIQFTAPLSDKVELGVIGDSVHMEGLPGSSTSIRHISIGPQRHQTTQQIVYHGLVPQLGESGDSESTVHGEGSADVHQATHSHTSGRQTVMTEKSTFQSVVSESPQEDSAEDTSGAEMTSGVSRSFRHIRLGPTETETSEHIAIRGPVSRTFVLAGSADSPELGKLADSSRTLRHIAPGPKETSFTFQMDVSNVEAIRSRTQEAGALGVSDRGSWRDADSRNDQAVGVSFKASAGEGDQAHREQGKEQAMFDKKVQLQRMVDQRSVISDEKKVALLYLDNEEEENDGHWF

B1: N-terminal FLAG tagged B3GNT2 (enzyme, human, UniProt Q9NY97 1-397, looked up)
chain: MSVGRRRIKLLGILMMANVFIYFIMEVSKSSSQEKNGKGEVIIPKEKFWKISTPPEAYWNREQEKLNRQYNPILSMLTNQTGEAGRLSNISHLNYCEPDLRVTSVVTGFNNLPDRFKDFLLYLRCRNYSLLIDQPDKCAKKPFLLLAIKSLTPHFARRQAIRESWGQESNAGNQTVVRVFLLGQTPPEDNHPDLSDMLKFESEKHQDILMWNYRDTFFNLSLKEVLFLRWVSTSCPDTEFVFKGDDDVFVNTHHILNYLNSLSKTKAKDLFIGDVIHNAGPHRDKKLKYYIPEVVYSGLYPPYAGGGGFLYSGHLALRLYHITDQVHLYPIDDVYTGMCLQKLGLVPEKHKGFRTFDIEEKNKNNICSYVDLMLVHSRKPQEMIDIWSQLQSAHLKC
notes: FLAG-tagged ORF overexpressed in cells; pulled down from lysate with mouse anti-FLAG; also called N-FLAG B3GNT2; N-term FLAG; not shown: N-terminal FLAG tag
On to B1, for which the entries for the “co-IP mass spectrometry count” value in test [1], in test [2] and in test [3] were 3, 5 and 23, respectively.

B2: N-terminal FLAG tagged B3GNT2 (enzyme, human, UniProt Q9NY97 1-397, looked up)
chain: MSVGRRRIKLLGILMMANVFIYFIMEVSKSSSQEKNGKGEVIIPKEKFWKISTPPEAYWNREQEKLNRQYNPILSMLTNQTGEAGRLSNISHLNYCEPDLRVTSVVTGFNNLPDRFKDFLLYLRCRNYSLLIDQPDKCAKKPFLLLAIKSLTPHFARRQAIRESWGQESNAGNQTVVRVFLLGQTPPEDNHPDLSDMLKFESEKHQDILMWNYRDTFFNLSLKEVLFLRWVSTSCPDTEFVFKGDDDVFVNTHHILNYLNSLSKTKAKDLFIGDVIHNAGPHRDKKLKYYIPEVVYSGLYPPYAGGGGFLYSGHLALRLYHITDQVHLYPIDDVYTGMCLQKLGLVPEKHKGFRTFDIEEKNKNNICSYVDLMLVHSRKPQEMIDIWSQLQSAHLKC
notes: FLAG-tagged ORF overexpressed in A375 cells; pulled down from the lysate with mouse anti-FLAG; also called N-FLAG B3GNT2; N-term FLAG; not shown: N-terminal FLAG tag
As to B2, the “co-IP/MS count, N-term FLAG” value in test [4] turned out to be 0; in test [5] it was 8.

These data come from patent publication US20240261333A1 (published 2024).
